Reference: patent publication US20260049105A1 (ARIZONA BOARD OF REGENTS ON BEHALF OF THE UNIVERSITY OF …, published 2026)

Columns and labels:
[1] = biological target: human melanocortin 4 receptor (human, UniProt P32245 1-332); experiment: cell-based or functional assay
[2] = biological target: T1, human melanocortin 1 receptor (human, UniProt Q01726 1-317); experiment: cell-based or functional assay
[3] = biological target: T2, human melanocortin 3 receptor (human, UniProt P41968 1-323); experiment: cell-based or functional assay
[4] = biological target: human melanocortin 5 receptor (human, UniProt P33032 1-325); experiment: cell-based or functional assay
[5] = biological target: T1, human melanocortin 1 receptor; experiment: competition with 125I-NDP-α-MSH, cells expressing hMC1R
[6] = biological target: T2, human melanocortin 3 receptor; experiment: competition with 125I-NDP-α-MSH, cells expressing hMC3R

T2 sequence (P41968 whole entry): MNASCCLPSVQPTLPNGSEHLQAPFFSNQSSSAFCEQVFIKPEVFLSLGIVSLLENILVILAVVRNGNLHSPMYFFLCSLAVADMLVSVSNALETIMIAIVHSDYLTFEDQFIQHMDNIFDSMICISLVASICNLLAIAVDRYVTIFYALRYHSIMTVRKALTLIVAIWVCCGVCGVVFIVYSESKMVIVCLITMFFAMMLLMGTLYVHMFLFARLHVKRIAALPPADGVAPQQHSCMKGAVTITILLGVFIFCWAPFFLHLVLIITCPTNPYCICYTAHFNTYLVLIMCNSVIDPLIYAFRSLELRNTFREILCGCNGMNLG
T1 sequence (Q01726 whole entry): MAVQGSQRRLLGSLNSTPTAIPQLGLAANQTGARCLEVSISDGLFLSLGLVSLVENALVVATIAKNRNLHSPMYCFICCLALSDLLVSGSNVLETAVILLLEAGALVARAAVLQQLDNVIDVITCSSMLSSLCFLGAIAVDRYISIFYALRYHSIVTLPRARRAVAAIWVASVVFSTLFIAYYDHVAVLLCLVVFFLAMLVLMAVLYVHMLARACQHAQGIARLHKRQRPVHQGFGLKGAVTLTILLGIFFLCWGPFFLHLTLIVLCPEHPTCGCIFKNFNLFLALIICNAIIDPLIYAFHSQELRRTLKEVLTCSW
Chain of human melanocortin 5 receptor (P33032 whole entry): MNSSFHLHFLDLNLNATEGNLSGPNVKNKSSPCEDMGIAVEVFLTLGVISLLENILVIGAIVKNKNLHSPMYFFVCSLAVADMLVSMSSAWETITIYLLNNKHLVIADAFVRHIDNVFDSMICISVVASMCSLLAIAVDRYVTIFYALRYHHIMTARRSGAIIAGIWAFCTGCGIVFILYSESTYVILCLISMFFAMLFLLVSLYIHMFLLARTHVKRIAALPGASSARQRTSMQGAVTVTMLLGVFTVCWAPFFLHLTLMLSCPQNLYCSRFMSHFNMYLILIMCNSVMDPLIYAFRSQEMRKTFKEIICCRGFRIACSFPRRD
Chain of human melanocortin 4 receptor (P32245 whole entry): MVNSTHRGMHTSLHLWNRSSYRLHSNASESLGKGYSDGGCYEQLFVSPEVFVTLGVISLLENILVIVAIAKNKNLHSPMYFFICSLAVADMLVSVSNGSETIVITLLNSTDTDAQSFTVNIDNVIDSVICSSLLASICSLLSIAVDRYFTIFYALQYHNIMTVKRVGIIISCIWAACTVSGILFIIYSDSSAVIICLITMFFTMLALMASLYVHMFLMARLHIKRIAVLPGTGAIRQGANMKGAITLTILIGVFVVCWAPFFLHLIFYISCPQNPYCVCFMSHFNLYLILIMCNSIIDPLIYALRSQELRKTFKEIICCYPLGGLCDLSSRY

EC50 (nM), cAMP accumulation [1]: > 1000 nM
Act % [2]: 100%
EC50 (nM), cAMP accumulation [2]: 340 nM
Act % [3]: 59%
EC50 (nM), cAMP accumulation [3]: > 1000 nM
Act % [4]: 62%
EC50 (nM), cAMP accumulation [4]: > 1000 nM
IC50 [5]: 14 nM
IC50 [6]: 59 nM
B1: Ac-Arg-cyclo[Asp-Pip-D-Phe(4-F)-βArg-Trp-Lys]-NH2 (peptide)
peptide: RDXFRWK
modifications: not fully specified; N-terminal acetyl (Ac); C-terminal amide (NH2); cyclized through the side chains of Asp2 and Lys7; Pip at 3; D-Phe(4-F) at 4; βArg at 5
notes: Synthetic cyclic peptide; also called compound 5; analogue 5
